Reference: the supplement of paper PMC7125110
± gives the standard error. For some assays here: Variants at the floor of the assay were thinned out.

B1: glmS ribozyme (parent)
chain: AUAAAAGCGCCAGAACUACAGAAAUGUAGUUGACGAGGAGGAGGUUUAUCGAAUUUUCGGCGGAUGCCUCCAAA

Assays:
Conditions in all cases: with glucosamine-6-phosphate
glucosamine-6-phosphate [1] = variants of: B1; assay: kcat; higher = faster cleavage; RNA array
In short: (§1)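 Tiles of sequenced MiSeq chips were imaged over ~14 h at 37 °C. On them, barcoded ribozyme variants had been transcribed in situ by E. coli RNA polymerase and were tracked via a hybridised Cy3 probe while glucosamine-6-phosphate (40 μM to 10 mM) in HEPES/KCl/Mg(OAc)2 buffer flowed in. Per-tile medians, normalised to baseline and to non-cleaving reference variants, were fit to one- or two-exponential decays for kobs, and weighted Michaelis–Menten fits gave kcat and KM.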

glucosamine-6-phosphate [2] = variants of: B1; assay: self-cleavage kobs at 160 uM GlcN6P; higher = faster cleavage; RNA array
In short: as §1

glucosamine-6-phosphate [3] = variants of: B1; assay: self-cleavage kobs at 640 uM GlcN6P; higher = faster cleavage; RNA array
In short: as §1

glucosamine-6-phosphate [4] = variants of: B1; assay: self-cleavage kobs at 2500 uM GlcN6P; higher = faster cleavage; RNA array
In short: as §1

glucosamine-6-phosphate [5] = variants of: B1; assay: self-cleavage kobs at 10000 uM GlcN6P; higher = faster cleavage; RNA array
In short: as §1

glucosamine-6-phosphate [6] = variants of: B1; assay: KM; higher = weaker cofactor use; RNA array
In short: as §1

glucosamine-6-phosphate [7] = variants of: B1; assay: self-cleavage kobs at 40 uM GlcN6P; higher = faster cleavage; RNA array
In short: as §1

Row | Variant | kcat (glucosamine-6-phosphate [1]) | self-cleavage kobs at 160 uM GlcN6P (glucosamine-6-phosphate [2]) | self-cleavage kobs at 640 uM GlcN6P (glucosamine-6-phosphate [3]) | self-cleavage kobs at 2500 uM GlcN6P (glucosamine-6-phosphate [4]) | self-cleavage kobs at 10000 uM GlcN6P (glucosamine-6-phosphate [5]) | KM (glucosamine-6-phosphate [6]) | self-cleavage kobs at 40 uM GlcN6P (glucosamine-6-phosphate [7])
1 | G40C U55A | 9.7e-05 ± 1.9e-05 s⁻¹ | 0.000138 ± 6.6e-05 s⁻¹ | 0.000125 ± 2.3e-05 s⁻¹ | 7.26e-05 ± 1.4e-05 s⁻¹ | 0.000133 ± 2.8e-05 s⁻¹ | – | –
2 | U57G G59U U65G C68U | 1.85e-05 ± 4.8e-06 s⁻¹ | – | – | – | – | – | –
3 | U69A C70U | 6.79e-05 ± 5.4e-06 s⁻¹ | 3.52e-05 ± 1e-05 s⁻¹ | 4.97e-05 ± 8.2e-06 s⁻¹ | 7.15e-05 ± 7.1e-06 s⁻¹ | 6.03e-05 ± 7.8e-06 s⁻¹ | – | –
4 | C67A C68A | 3.56e-05 ± 6.8e-06 s⁻¹ | – | 5.08e-05 ± 1.2e-05 s⁻¹ | 2.46e-05 ± 1e-05 s⁻¹ | 3.61e-05 ± 9.6e-06 s⁻¹ | – | –
5 | C16U U65C | 0.000756 ± 0.00022 s⁻¹ | 8.27e-05 ± 1.8e-05 s⁻¹ | 0.000152 ± 2.2e-05 s⁻¹ | 0.000332 ± 6.8e-05 s⁻¹ | 0.000697 ± 0.00011 s⁻¹ | 2290 ± 1100 µM | –
6 | G29C G41U | 5.56e-05 ± 4e-07 s⁻¹ | – | – | 3.01e-05 ± 1.1e-05 s⁻¹ | 4.6e-05 ± 7.7e-06 s⁻¹ | 2090 ± 57 µM | –
7 | G38A U49A | < 1e-05 s⁻¹ | – | – | – | < 1e-05 s⁻¹ | – | < 1e-05 s⁻¹
8 | G32A G66C | 5.52e-05 ± 1.5e-06 s⁻¹ | – | – | 3.72e-05 ± 1.6e-05 s⁻¹ | 4.9e-05 ± 1.4e-05 s⁻¹ | 1250 ± 160 µM | –
9 | G13U G38C | < 1e-05 s⁻¹ | – | < 1e-05 s⁻¹ | – | < 1e-05 s⁻¹ | – | –
10 | A14G A39C | 0.0183 ± 0.0021 s⁻¹ | 0.000699 ± 0.00017 s⁻¹ | 0.00281 ± 0.00047 s⁻¹ | 0.00921 ± 0.0025 s⁻¹ | 0.0134 ± 0.0019 s⁻¹ | 3470 ± 520 µM | 0.000225 ± 3.6e-05 s⁻¹
11 | G38A C61G | 1.44e-05 ± 3.1e-06 s⁻¹ | – | – | – | – | – | –
12 | G32U G40C | 0.000104 ± 1.3e-05 s⁻¹ | – | 2.66e-05 ± 1.3e-05 s⁻¹ | 7.79e-05 ± 1.1e-05 s⁻¹ | 8.66e-05 ± 1.3e-05 s⁻¹ | 1250 ± 520 µM | –
13 | A15C G44U | 4.07e-05 ± 6.1e-06 s⁻¹ | < 1e-05 s⁻¹ | – | – | – | – | < 1e-05 s⁻¹
14 | A6U U31C | 3.19e-05 ± 7.8e-07 s⁻¹ | – | – | – | 2.97e-05 ± 1.2e-05 s⁻¹ | 647 ± 96 µM | –
15 | U47A U56C | 0.00368 ± 0.00095 s⁻¹ | 0.000111 ± 2.1e-05 s⁻¹ | 0.000703 ± 8.8e-05 s⁻¹ | 0.00144 ± 0.00021 s⁻¹ | 0.00257 ± 0.00031 s⁻¹ | 3940 ± 1500 µM | –
16 | A52G G62A | 2.22e-05 ± 9.7e-06 s⁻¹ | < 1e-05 s⁻¹ | – | – | < 1e-05 s⁻¹ | – | –
17 | A12G U69C | 0.000893 ± 0.00026 s⁻¹ | – | 0.000152 ± 2e-05 s⁻¹ | 0.000243 ± 5.4e-05 s⁻¹ | 0.0007 ± 8.2e-05 s⁻¹ | 3900 ± 1900 µM | –
